Molecular target: Nucleocapsid protein (N), unmodified (SARS-CoV-2, UniProt P0DTC9 2-419)
Assay: fluorescence polarization
Conditions: protein: recombinant, tags: N-terminal 6xHis-TEV site, cleaved by TEV (Gly left before S2), chain copies: 2, label: 5'-FAM

Binder	Kd (hairpin) [nM]	Kd (single strand, unstructured) [nM]
CUGUGUGGCUGUCACUCGGCUGCAUGCUUAGUGCACUCACGCAG (structured_RNA) [SL4 RNA]	10.9 ± 1.4	–
AAAAAAAAAAAAAAAAAAAAAAAAAAAAAA (ssRNA) [polyrA 30-mer]	–	71.7 ± 0.8
